Laboratory results reported in PMC5462531.
pKd: −log10 of the molar value.

Key:
[1] = molecular target: SBC, trimeric complex of SOCS2, Elongin B and Elongin C (wild type) (UniProt O14508); assay: ITC; Cul5NTD titrated into VBC or SBC proteins (Figure 7D: 200 μM into 20 μM, 303 K); 100 mM Bis tris propane pH 8.0, 50 mM NaCl, 2 mM TCEP; one-set-of-sites model
[2] = molecular target: V^QRYBC, VBC with the pVHL triple mutation K159Q, S183R, D187Y (human) (UniProt P40337); assay: as above
[3] = molecular target: S^KSDBC, SBC with the SOCS2 triple mutation Q164K, R186S, Y190D (UniProt O14508); assay: as above
[4] = molecular target: Rbx1-Cul2, dimeric complex of full-length Rbx1 and full-length Cullin-2 (wild type) (human) (UniProt Q13617); assay: ITC; VBC or SBC proteins (200 μM) titrated into Rbx1-Cul2 (20 μM), 303 K; 100 mM Bis tris propane pH 8.0, 50 mM NaCl, 2 mM TCEP; one-set-of-sites model
Sequence of Rbx1-Cul2, dimeric complex of full-length Rbx1 and full-length Cullin-2 (wild type) (human) (Q13617 whole entry, chain 1 of 2): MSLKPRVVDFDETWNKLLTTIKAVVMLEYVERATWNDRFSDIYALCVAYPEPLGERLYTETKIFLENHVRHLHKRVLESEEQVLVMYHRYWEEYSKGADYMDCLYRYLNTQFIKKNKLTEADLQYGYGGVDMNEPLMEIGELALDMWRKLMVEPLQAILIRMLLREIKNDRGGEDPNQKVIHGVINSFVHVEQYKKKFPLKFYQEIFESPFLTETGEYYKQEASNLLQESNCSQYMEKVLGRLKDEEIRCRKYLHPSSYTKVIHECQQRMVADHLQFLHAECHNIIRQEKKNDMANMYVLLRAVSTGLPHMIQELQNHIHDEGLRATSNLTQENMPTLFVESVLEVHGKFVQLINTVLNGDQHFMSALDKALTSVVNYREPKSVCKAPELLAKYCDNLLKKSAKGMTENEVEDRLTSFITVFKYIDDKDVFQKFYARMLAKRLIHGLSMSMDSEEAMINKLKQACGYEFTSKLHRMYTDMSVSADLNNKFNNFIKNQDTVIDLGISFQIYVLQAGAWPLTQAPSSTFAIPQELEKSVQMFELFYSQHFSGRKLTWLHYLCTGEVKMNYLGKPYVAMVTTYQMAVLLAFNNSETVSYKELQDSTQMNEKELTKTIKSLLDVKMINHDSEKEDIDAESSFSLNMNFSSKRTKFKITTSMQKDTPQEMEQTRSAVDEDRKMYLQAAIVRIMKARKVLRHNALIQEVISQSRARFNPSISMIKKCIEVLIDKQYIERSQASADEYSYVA
Sequence of Rbx1-Cul2, dimeric complex of full-length Rbx1 and full-length Cullin-2 (wild type) (human) (P62877 whole entry, chain 2 of 2, further chain): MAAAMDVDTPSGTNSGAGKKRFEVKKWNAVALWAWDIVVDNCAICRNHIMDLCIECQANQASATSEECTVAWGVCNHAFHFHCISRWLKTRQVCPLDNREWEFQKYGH

Sequence of Cul5NTD, N-terminal domain of Cullin-5 (residues 1-386) (Q93034 1-386): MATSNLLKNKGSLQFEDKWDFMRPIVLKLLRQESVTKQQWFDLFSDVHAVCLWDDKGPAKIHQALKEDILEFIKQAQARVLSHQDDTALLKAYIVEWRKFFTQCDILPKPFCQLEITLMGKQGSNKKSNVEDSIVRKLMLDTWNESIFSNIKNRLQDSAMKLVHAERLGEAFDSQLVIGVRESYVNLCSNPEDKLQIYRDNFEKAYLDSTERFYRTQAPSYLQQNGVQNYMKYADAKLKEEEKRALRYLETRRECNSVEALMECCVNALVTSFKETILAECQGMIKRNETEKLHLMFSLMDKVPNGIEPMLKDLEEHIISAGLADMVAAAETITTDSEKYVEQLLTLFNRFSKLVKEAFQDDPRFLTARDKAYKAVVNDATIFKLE

Row | pKd [1] | pKd [2] | pKd [3] | pKd [4] | Substance
1 | 8.00 | 5.54 | 6.60 |  | Cul5NTD, N-terminal domain of Cullin-5 (residues 1-386) (from UniProt Q93034 1-386) (domain or fragment)
2 |  |  |  | 5.60 | S^KSDBC, SBC with the SOCS2 triple mutation Q164K, R186S, Y190D (from UniProt O14508 32-198; Q15370 1-104; Q15369 17-112) (complex; other documents disagree on this pair)
